Reference: US20240301071A1 (Alector, published 2024)

T1: Fc-tagged dog SIRPA (accession no. XP005634938) (dog, UniProt A0A8I3P880)
T1 sequence: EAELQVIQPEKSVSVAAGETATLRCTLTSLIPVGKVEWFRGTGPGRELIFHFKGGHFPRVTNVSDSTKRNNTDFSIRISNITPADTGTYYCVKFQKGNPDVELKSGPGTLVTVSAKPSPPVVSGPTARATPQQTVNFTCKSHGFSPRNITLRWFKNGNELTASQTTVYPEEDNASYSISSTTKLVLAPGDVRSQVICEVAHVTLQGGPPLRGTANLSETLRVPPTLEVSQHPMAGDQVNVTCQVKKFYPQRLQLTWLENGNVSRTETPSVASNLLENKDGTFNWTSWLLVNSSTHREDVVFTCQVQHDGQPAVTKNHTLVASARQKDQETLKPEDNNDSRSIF

T2: Fc-tagged marmoset SIRPA (accession no. JAB51896) (marmoset, UniProt U3F8F0 31-373)
T2 sequence: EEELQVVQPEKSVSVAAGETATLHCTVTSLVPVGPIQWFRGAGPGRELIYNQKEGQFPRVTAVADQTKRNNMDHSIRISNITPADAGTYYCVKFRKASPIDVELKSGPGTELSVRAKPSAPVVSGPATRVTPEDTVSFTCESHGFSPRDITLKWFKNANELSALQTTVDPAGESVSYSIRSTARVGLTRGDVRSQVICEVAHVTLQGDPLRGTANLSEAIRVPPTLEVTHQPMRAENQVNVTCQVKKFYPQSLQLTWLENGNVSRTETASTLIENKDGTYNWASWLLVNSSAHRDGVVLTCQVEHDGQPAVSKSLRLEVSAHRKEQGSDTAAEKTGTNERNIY

T3: rat SIRPA (rat, UniProt P97710 32-373, limits assumed)
T3 sequence (looked up): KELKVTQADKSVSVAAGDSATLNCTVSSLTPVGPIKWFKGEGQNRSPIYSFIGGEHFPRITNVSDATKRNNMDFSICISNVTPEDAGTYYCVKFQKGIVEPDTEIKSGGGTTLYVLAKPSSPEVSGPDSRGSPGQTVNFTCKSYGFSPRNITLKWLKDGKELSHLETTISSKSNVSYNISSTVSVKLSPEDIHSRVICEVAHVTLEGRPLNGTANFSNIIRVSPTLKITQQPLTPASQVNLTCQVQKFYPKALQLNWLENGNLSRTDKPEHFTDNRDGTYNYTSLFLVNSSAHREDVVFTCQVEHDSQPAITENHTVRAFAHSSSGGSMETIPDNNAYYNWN

T4: cynoSIRPA XPO15313153.1 (cynomolgus, UniProt A0A2K5VYQ9)
T4 construct: not tied one by one in the text; also called cynomolgus SIRPA; not shown: Fc or His tag
T4 sequence: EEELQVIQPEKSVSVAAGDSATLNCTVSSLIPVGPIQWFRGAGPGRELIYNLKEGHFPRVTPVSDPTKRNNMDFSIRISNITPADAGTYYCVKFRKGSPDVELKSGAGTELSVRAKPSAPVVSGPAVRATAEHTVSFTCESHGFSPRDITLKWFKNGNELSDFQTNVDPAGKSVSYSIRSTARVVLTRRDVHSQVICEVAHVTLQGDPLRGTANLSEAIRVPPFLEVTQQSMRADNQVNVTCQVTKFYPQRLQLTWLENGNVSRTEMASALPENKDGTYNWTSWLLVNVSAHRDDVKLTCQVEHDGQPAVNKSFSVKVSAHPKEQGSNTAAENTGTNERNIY

B1: 3F9-14 (antibody)
heavy: not shown
light: DIQLTQSPSSLSASVGDRVTITCRASKSVSSGGYSYMHWYQQKPGKAPKLLIYLASNLESGVPSRFSGSGSGTDFTLTISSVQPEDFATYYCQHNRELPVTFGQGTKLEIKRTVAAPSVFIFPPSDEQLKSGTASVVCLLNNFYPREAKVQWKVDNALQSGNSQESVTEQDSKDSTYSLSSTLTLSKADYEKHKVYACEVTHQGLSSPVTKSFNRGEC
notes: also called mAb 3F9-14; hu3F9-14
B2: 3F9-22 (antibody)
heavy: not shown
light: DIQLTQSPSSLSASVGDRVTITCRASKSVSSGGYSYMHWYQQKPGKAPKLLIYLASNLESGVPSRFSGSGSGTDFTLTISSVQPEDFATYYCQHNRELPVTFGQGTKLEIKRTVAAPSVFIFPPSDEQLKSGTASVVCLLNNFYPREAKVQWKVDNALQSGNSQESVTEQDSKDSTYSLSSTLTLSKADYEKHKVYACEVTHQGLSSPVTKSFNRGEC
notes: also called mAb 3F9-22; hu3F9-22

Legend:
[1] = biological target: T5, histidine-tagged human SIRPA v1 (Novoprotein) (human, UniProt P78324 31-370, limits assumed); experiment: BLI (Octet)
T5 construct: bought, soluble; also called huSIRPA; soluble huSIRPA; not shown: histidine tag
T5 sequence (P78324 31-370 limits assumed): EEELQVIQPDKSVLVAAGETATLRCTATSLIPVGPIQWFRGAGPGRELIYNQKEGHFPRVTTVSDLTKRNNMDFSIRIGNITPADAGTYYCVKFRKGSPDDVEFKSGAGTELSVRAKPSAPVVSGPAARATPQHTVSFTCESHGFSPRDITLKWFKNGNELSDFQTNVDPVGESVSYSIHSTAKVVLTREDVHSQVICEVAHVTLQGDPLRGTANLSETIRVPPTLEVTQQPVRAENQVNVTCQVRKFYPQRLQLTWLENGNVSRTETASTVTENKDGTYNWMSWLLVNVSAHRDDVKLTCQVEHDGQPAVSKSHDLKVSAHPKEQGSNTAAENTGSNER
Procedure: (§1) Initial characterization of affinity matured anti-SIRPA antibodies disclosed herein comprised acquiring antigen affinity measurements using bio-layer interferometry (BLI) on a Pall ForteBio Octet RED96 instrument. Immobilized anti-mouse IgG Fc or anti-human IgG Fc antibodies captured murine anti-SIRPA 3F79 antibody and humanized anti-SIRPA 3F79 antibody on biosensors, respectively. Single cycle kinetics were performed with 25 nM huSIRPA [which variant?] or 50 nM huSIRPB 1 flowed over captured antibody 3F79 to record traces. Data analysis was performed using ForteBio Data Analysis Software, version 9.0. Standard kinetic buffer (PBS, 0.100 BSA, 0.02% Tween-20, pH 7.2) was used for the assay and for preparing reagents. […] 50 nM of histidine-tagged human SIRPA vi or human SIRPB1 (Novoprotein, Summit, NJ, USA) were then bound to the captured anti-SIRPA antibody coated surface (200 s association time, 900 s dissociation time). […] Single-curve kinetic analysis was performed using a 1:1 interaction model to extract association and dissociation rate constants (ka and kd, respectively) for each antibody. Affinity constants (KD) were calculated from the ratio kd/ka.

[2] = biological target: T5, histidine-tagged human SIRPA v1 …; experiment: BLI (Octet), antibody on anti-human IgG Fc sensor, His-huSIRPA in solution, single-curve 1:1 fit
Procedure: as §1

[3] = biological target: T6, human SIRPA v1 on BWZ cells (BWZ-huSIRPA) (human, UniProt P78324 31-504); experiment: flow cytometry titration on BWZ-huSIRPA cells, 4 C
T6 construct: also called BWZ cells overexpressing human SIRPA; BWZ-huSIRPA v1 cells
T6 sequence (P78324 31-504): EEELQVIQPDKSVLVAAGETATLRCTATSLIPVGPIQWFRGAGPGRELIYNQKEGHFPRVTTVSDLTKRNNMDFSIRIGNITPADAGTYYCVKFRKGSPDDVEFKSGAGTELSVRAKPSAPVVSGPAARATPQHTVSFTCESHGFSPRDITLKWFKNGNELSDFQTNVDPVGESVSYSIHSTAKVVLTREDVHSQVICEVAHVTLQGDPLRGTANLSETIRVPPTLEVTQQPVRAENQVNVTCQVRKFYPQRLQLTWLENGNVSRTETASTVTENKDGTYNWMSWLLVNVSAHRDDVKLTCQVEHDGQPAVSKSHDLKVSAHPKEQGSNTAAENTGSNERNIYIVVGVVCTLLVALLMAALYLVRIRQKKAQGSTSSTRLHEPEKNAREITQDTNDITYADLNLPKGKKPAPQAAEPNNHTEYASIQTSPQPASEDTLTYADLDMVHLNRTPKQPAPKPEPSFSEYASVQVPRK
Procedure: After addition of fluorescently labeled secondary antibody and brief washing steps, MFI values as a function of titrated antibody concentration was recorded via FACS analysis. […] Receptor bound antibodies were detected by staining cells with anti-human IgG PE secondary antibody. Curves were fit using nonlinear regression analysis with Graphpad Prism 6 software.

[4] = biological target: T7, human SIRPA on human macrophages (primary monocyte-derived macrophages; U937 line) (human, UniProt P78324 31-504); experiment: cell-based or functional assay
T7 sequence (P78324 31-370): as the sequence (P78324 31-370 limits assumed) above

[5] = biological target: T7, human SIRPA on human macrophages …; experiment: cell-based or functional assay; remark: listed apart in the source
[6] = biological target: T1, Fc-tagged dog SIRPA (accession no. …); experiment: ELISA, plate coated with Fc-tagged SIRPA
Procedure: (§2) In an ELISA assay, 96-well Immulon HBX plates were coated with His- or Fc-tagged SIRPA of a given species, as indicated, at 1 μg/mL in PBS overnight at 4C. Plates were blocked in 5% (w/v) bovine serum albumin in PBS for 1 hour, after which they were washed 3 times with PBS/0.05% Tween 20 (PBS/T). Anti-SIRPA antibodies were added to the plate in a dilution series and were incubated at room temperature for 2 hours, after which the unbound antibody was removed by washing with PBS/T. Horseradish peroxidase-conjugated anti-mouse IgG or anti-human kappa light chain (Jackson Immunoresearch) was then added to the wells and incubated for 30 minutes. Unbound antibody was removed by washing with PBS/T, after which bound antibody was detected using tetramethylbenzidine (TMB). The reaction was stopped with 2N H₂SO₄, after which the plates were read at A450.

[7] = biological target: T2, Fc-tagged marmoset SIRPA (accession no. …); experiment: ELISA, plate coated with Fc-tagged SIRPA
Procedure: as §2

huSIRPA v.2 NP542970.1 = biological target: T8, huSIRPA v.2 NP542970.1 (human, UniProt P78324 31-373, limits assumed); experiment: ELISA, plate coated with tagged SIRPA at 1 ug/mL
T8 construct: see m48; also called human SIRPA v2; human SIRPA-Fc (v2)
T8 sequence (P78324 31-373 limits assumed): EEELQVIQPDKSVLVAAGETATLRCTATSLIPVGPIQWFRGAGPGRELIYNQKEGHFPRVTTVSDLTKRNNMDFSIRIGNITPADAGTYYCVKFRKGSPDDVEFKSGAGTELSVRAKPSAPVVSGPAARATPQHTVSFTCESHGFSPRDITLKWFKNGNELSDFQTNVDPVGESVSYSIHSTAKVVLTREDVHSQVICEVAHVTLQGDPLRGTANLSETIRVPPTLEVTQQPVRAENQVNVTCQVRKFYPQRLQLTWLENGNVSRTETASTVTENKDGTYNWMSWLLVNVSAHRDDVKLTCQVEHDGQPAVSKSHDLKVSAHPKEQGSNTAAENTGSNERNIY
Procedure: as §2

rat SIRPA = biological target: T3, rat SIRPA; experiment: ELISA, plate coated with tagged SIRPA at 1 ug/mL
Procedure: as §2

cynoSIRPA XPO15313153.1 = biological target: T4, cynoSIRPA XPO15313153.1; experiment: ELISA, plate coated with tagged SIRPA at 1 ug/mL
Procedure: as §2

| Binder | fold increase in affinity relative to parental h3F9 [1] [fold] | Kd [2] [pM] | koff [2] [s⁻¹] | kon [2] [M⁻¹ s⁻¹] | EC50 [3] [pM] | SIRPA IC50 (nM), downregulation on U937 cells [4] [nM] | SIRPA Max % DR, U937 cells [4] [%] | Phagocytosis, fold increase over baseline activity [5] [fold] | SIRPA IC50 (nM), downregulation on human primary macrophages [5] [nM] | SIRPA Max % DR, human primary macrophages [5] [%] | EC50 [6] [pM] | EC50 [7] [pM] | EC50 (huSIRPA v.2 NP542970.1) [pM] | binding result (rat SIRPA) | EC50 (cynoSIRPA XPO15313153.1) [pM] |
| --- | --- | --- | --- | --- | --- | --- | --- | --- | --- | --- | --- | --- | --- | --- | --- |
| B1 | ~10 | 618 | 0.000102 | 165000 | 420 | 1.17 | 69 | 1.56 | 0.0372 | 89 | 640 | 1200 | 80 | no binding | 879 |
| B2 | ~10 | 646 | 0.000113 | 174000 | 490 | 0.187 | 76 | 1.68 | 0.0542 | 91 | 830 | 4300 | 82 | no binding | 107 |
